Reference: paper PMC4938799, “LD Motif Recognition by Talin: Structure of the Talin-DLC1 Complex” (Structure(London, England:1993), 2016)

Test system: paxillin-DDK
Assay: GST pull-down of transfected paxillin-DDK in 293 cells
Type: cell-based, human
Text: To investigate whether the biological effects of GST-R8 might be partly mediated via paxillin, we first confirmed that endogenous paxillin is expressed in cell lines A549, H358, and 293T (Figure S6A). […] As a positive control, HEK293 cells were co-transfected with a paxillin-DDK construct (OriGene) and GST-R8 (wild-type, R1544E and 2E mutants), followed by a GST pull-down assay.
Figure S6, related to figure 5. Binding of GST-talin R8 to endogenous paxillin is undetectable in A549 and H358 cells.
(A) The expression of endogenous paxillin in cell lines. Cell extracts were assayed by immunoblotting with anti-paxillin antibody. […]
NMR Spectroscopy - Spectra were processed with TopSpin (Bruker) and analysed using CCPN Analysis (Vranken et al., 2005). […] The changes in chemical shift of 15N-talin R8 domain were calculated from 1H,15N-HSQC spectra as Δδ=√(ΔδH2+(ΔδN*0.15)2). […]
Dissociation constants were evaluated from the 1H,15N-HSQC chemical shift changes in the titration experiments conducted using 0.1 mM 15N-talin R8 domain. […]
Concentrations of the DLC1 and RIAM peptides were determined from UV absorbance at 280 nm.
Concentrations of the paxillin peptide that lacks UV-active aromatic residues was determined by NMR from the comparison of the integral intensities of the well-separated signals of the methyl groups of the paxillin and RIAM peptides following the Eretic2 procedure of TopSpin (Bruker). […]

B1: GST-R8: GST-tagged talin R8, amino acids 1,453–1,580 (protein)
chain: NSQAGQQGLVEPTQFARANQAIQMACQSLGEPGCTQAQVLSAATIVAKHTSALCNSCRLASARTANPTAKRQFVQSAKEVANSTANLVKTIKALDGDFTEENRAQCRAATAPLLEAVDNLSAFASNPE
modifications: left off: GST, end not stated, kept
293 cells co-transfected with paxillin-DDK and GST-R8, listed as GST-talin R8 wt
  binding of paxillin-DDK: formed a complex
293 cells co-transfected with paxillin-DDK and GST-R8, listed as wild-type GST-R8
  binding of paxillin-DDK: did bind paxillin-DDK, and did so more efficiently than 2E GST-R8 talin mutant
